For experiment [1], the target named is FcγRIIIa on NK cells of human PBMC (human, UniProt P08637 17-254). Briefly: cell-based or functional assay.
In experiment [2] the target is T1, recombinant human His-tagged FcγRIIa (R&D Systems #1330-CD-050) (human, UniProt P12318 36-218, limits assumed).
T1 construct: Bought; also called CD32a; recombinant, soluble, human FcγRIIa
T1 sequence (looked up): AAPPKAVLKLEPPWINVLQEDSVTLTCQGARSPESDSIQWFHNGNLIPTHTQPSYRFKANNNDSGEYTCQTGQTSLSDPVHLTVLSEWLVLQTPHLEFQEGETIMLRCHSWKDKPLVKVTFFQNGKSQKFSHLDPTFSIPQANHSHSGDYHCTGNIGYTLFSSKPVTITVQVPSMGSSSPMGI
Briefly: AlphaScreen. The procedure: FcγRIIa (CD32a) AlphaScreen—Nickel acceptor beads (Perkin Elmer #6760619C) were diluted 1:50 in assay buffer (PBS, pH 7.4, 4 mg/ml BSA, 0.01% Tween-20), and 27.5 μl were added to each well of a Nunc V-bottom polypropylene plate (VWR # 62409-108) (Powers G., Notebook 9006, pp. 169-175, 182-185). A 2.0 μg/ml solution of recombinant human His-tagged FcγRIIa (R&D Systems #1330-CD-050) was prepared in assay buffer and 27.5 μl added to each well of a separate Nunc V bottom polypropylene plate. Titrations of test Abs were prepared in the Nunc V bottom polypropylene plate starting at 30 μg/ml. A 2 μg/ml solution of biotinylated goat F(ab′)₂ anti-human IgG F(ab′)₂ (Jackson Immunoresearch #109-066-097) was prepared in assay buffer and 27.5 μl added to each well of another Nunc V bottom polypropylene plate. A 1:50 dilution of streptavidin donor beads (PerkinElmer # 6760002) was prepared in assay buffer and 27.5 μl added to each well of another Nunc V bottom polypropylene plate. A volume of 5 μl of each reagent was added to the corresponding quadrants of a low-volume, non-binding white 384-well plate (Corning # 3673) in the following order: acceptor beads, FcγRIIa, test Ab, biotinylated anti-human IgG F(ab′)₂, and streptavidin donor beads. The plates were incubated for 30 minutes with shaking and the O.D.s determined using an Envision plate reader.
FcγRIIb (CD32b) AlphaScreen—The assay was performed as described above for FcγRIIa except that FcγRIIa was replaced with FcγRIIb (R&D Systems #1875-CD-050).
Background: Alpha assays give light when donor and acceptor beads are brought close together.

FcγRIIIa on NK cells of human PBMC, sequence (P08637 17-254): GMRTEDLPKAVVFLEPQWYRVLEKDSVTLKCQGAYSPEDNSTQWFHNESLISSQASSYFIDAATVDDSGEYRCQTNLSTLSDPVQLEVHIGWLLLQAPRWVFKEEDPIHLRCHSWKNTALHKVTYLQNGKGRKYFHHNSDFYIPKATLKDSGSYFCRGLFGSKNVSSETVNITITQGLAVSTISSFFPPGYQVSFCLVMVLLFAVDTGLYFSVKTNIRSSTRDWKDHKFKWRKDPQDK

B1: CNTO 860 A330I/I332E (antibody, human IgG1, kappa)
heavy: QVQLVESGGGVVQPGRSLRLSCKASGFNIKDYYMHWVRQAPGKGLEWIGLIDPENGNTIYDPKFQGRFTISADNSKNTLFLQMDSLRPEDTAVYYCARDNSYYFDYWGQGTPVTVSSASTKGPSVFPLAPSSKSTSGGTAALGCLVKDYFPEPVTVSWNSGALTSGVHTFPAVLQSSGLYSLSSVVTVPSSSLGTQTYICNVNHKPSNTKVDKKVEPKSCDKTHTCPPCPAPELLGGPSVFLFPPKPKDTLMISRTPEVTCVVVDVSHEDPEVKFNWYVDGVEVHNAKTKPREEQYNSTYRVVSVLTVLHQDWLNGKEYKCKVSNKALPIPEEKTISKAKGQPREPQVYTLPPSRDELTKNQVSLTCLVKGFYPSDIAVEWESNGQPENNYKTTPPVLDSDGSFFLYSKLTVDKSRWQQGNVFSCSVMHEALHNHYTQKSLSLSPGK
light: DIQMTQSPSSLSASVGDRVTITCKASQDIRKYLNWYQQKPGKAPKLLIYYATSLADGVPSRFSGSGSGTDYTFTISSLQPEDIATYYCLQHGESPYTFGQGTKLEITRTVAAPSVFIFPPSDEQLKSGTASVVCLLNNFYPREAKVQWKVDNALQSGNSQESVTEQDSKDSTYSLSSTLTLSKADYEKHKVYACEVTHQGLSSPVTKSFNRGEC
modifications: N-linked glycan at Asn297 of the heavy chain (fucose content depends on host cell, CHO or YB2/0); not carried by the letters
notes: also called A330I/I332E double mutant; A330I/I332E variant; copies: 2 + 2
B1: the “fold activity in the ADCC assays” value in experiment [1] was ~10 fold. Also, the “fold higher concentration than WT to give an OD signal of 200,000” value in experiment [2] is ~20 fold.

The record behind these values is patent publication US20080311034A1 (published 2008).
